The target of data set [1] is T1, CRF1 (Homo sapiens, UniProt P34998, I163A).
T1 construct: made in house; host or cells: HEK293T cells, transient
T1 sequence (P34998 24-415 I163A): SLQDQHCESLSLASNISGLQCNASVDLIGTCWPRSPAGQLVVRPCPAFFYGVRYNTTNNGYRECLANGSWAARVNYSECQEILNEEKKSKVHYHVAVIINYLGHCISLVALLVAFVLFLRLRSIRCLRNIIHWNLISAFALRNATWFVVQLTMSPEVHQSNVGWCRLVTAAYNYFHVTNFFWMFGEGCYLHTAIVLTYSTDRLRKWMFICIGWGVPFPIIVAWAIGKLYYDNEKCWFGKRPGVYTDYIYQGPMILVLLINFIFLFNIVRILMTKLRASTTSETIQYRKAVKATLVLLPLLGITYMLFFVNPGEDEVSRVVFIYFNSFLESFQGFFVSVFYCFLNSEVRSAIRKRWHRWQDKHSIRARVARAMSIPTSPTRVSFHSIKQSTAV
In words: Thermostability of CRF1 bound to antagonist CP-376395, purified in DDM. In kind it is physicochemical. To be noted: antagonist CP-376395 bound, versus CRF1 WT. The procedure: (§1) In order to stabilise CRF1 in the antagonist conformation, a systematic alanine-scan was performed to identify mutations that stabilise receptors bound to the antagonist ligand CP-376395. Mutating I2.58 to alanine (I163A) confers significant stabilisation in CRF1, increasing the thermal stability by 3.9 (±0.5)° C. (FIG. 15).
(§2) CRF1 receptors were transiently expressed in HEK293T cells on 10 cm plates using GeneJuice transfection reagent used according to manufacturers guidelines.
(§3) Cells expressing CRF1 were harvested in PBS approximately 40 hours post-transfection and re-suspended in 950 μl Re-suspension buffer (50 mM Tris-HCl, 150 mM NaCl, 2× Complete EDTA-free Protease inhibitor cocktail (Roche), pH7.5). Cells were incubated with 120 nM CP-376395 and 30 nM [^3H]-CP-376395 at 37° C. for 2 hours before transferring to ice for 5 minutes. The receptors were solubilised by the addition of 1% DDM and incubated at 4° C. for 1 hour with gentle agitation. Insoluble material was removed by centrifugation at 16000×g for 10 minutes at 4° C. The solubilised receptors were partially purified with Ni-NTA agarose (Qiagen). Ni-NTA resin was equilibrated in Equilibration buffer (50 mM Tris-HCl, 150 mM NaCl, 2× Complete EDTA-free Protease inhibitor cocktail (Roche), 0.025% DDM, pH7.5) and 400 μl of a 50:50 resin slurry was added to each sample. Resin slurries were incubated at 4° C. for 1 hour 30 minutes with gentle agitation to bind receptors. Resin slurries were then transferred to a batch column filter plate (Chromabond) and centrifuged at 1000×g for 1 minute, discarding the flow-through. Resin was washed twice with 1 ml of Wash buffer (50 mM Tris-HCl, 150 mM NaCl, 2× Complete EDTA-free Protease inhibitor cocktail (Roche), 0.025% DDM, 20 mM Imidazole, pH7.5) and then eluted in 1 ml of Elution buffer (50 mM Tris-HCl, 150 mM NaCl, 2× Complete EDTA-free Protease inhibitor cocktail (Roche), 0.025% DDM, 100 mM histidine, 30 nM [^3H]-CP-376395, 120 nM CP-376395, pH7.5) by resuspension at 4° C. for 30 minutes. Eluted samples were used directly in the thermostability assay. […]

The test system of data set [2] is CRF1. Described as above. Format: physicochemical, human. To be noted: antagonist-bound state (CP-376395), purified in DDM. The procedure: as §1, §2, §3
Data set [3] has as its target T2, OX2 receptor (Homo sapiens, UniProt O43614, F28L/I308V/Y91L).
T2 construct: made in house; host or cells: transiently transfected mammalian cells (HEK293T inferred from 'as described for M4')
T2 sequence (O43614 1-444 F28L/Y91L/I308V): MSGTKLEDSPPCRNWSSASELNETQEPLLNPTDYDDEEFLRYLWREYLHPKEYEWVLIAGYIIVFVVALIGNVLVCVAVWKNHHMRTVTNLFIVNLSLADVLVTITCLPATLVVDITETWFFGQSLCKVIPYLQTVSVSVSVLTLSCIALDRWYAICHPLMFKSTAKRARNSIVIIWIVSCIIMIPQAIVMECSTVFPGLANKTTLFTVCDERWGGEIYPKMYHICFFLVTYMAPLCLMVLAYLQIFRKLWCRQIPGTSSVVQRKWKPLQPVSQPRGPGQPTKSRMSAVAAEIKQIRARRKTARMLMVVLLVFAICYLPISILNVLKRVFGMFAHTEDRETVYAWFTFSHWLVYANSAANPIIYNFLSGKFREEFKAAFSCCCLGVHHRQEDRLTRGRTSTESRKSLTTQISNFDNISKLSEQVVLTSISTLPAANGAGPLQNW
Briefly: Thermostability of OX2 receptor bound to antagonist EMPA. In kind it is physicochemical. To be noted: antagonist EMPA bound, compared to WT OX2. The procedure: (§4) Transiently transfected mammalian cells expressing M4 were harvested about 40 hours post transfection and the receptors were solubilised in 50 mM Tris pH 7.5/250 mM NaCl/1% DDM/EDTA free protease inhibitor mix for 1 hour rotating at 4° C. The solubilised lysate was then cleared by centrifugation at 13000 rpm for 15 minutes at 4° C. The solubilised receptors were then purified on Ni-NTA beads and eluted with 100 mM histidine. The eluted receptor was used in radioligand binding assay. Thermostability of M4 was measured using 25 μL of purified receptor mixed with 95 μL of 12 nM [^3H]-NMS (final concentration of 10 nM). The sample was incubated for 60 min at 4° C., then 30 min at the specified temperature and then 30 min at 4° C. Receptor bound and free radioligand were separated using a 96-well plate gel filtration assay.
(§5) A tandem alanine and leucine scanning mutagenesis strategy was used to identify mutations that enhanced the thermostability of OX2 bound to the small-molecule antagonist EMPA.
(§6) Thermostability assays were preformed on partially purified receptors as described for M4, with the following amendments. Cell lysates were solubilised in 50 mM Tris pH7.4, 150 mM NaCl, 1% DDM supplemented with 1× complete EDTA free protease inhibitor cocktail (Roche). Radioligand binding reactions were set up using 1/10 volume eluted receptor mixed with 20 nM ^3H-EMPA (final concentration) per temperature point.

In data set [4] the test system is OX2 receptor. The data set is described as above. In kind it is physicochemical, human. The settings on record: bound to antagonist EMPA. The procedure:
as §4, §5, §6

Where a chain is given by its changes, count along the chain named. Names and notes keep the numbering of the source.

The results in this text go back to US8703915B2, “Mutant proteins and methods for producing them” (Heptares Therapeutics Limited, priority 2009, dated 2014).

B1: CRF1 I163A: human CRF1 mutant, I2.58 to alanine (I163A) (protein, UniProt P34998 24-415, looked up, variant I163A)
Corticotropin-releasing …: T1 sequence (P34998 24-415 I163A)
In the case of B1, the “increase of thermal stability” value with CRF1 [1] is recorded as 3.9 (±0.5) ° C. Further, the Tm in the data set on CRF1 [2] was found to be 30.7 °C.

B2: OX2Y91L (protein, UniProt O43614 1-444, looked up, variant Y91L)
Orexin receptor type 2: T2 sequence (O43614 1-444 F28L/Y91L/I308V) with L28F, V308I
For the molecule B2, in the data set with OX2 receptor [3], the “increase of Tm” value worked out at 1 °C. In addition, in the data set with OX2 receptor [4], the Tm turned out to be 29.69 °C.
